{"source": "the supplement of paper PMC6755084", "parents": {"B1": {"name": "minF1; a variant is named by its letters at N, in order (parent)", "chain": "GAGACCGCAACTGAAAAGTTGTTNNNNAANNNNGGNTNNATTTCTGCACGTAGAAGCAAAAGGC"}}}
{"variants_of": "B1", "test": "fraction ligated after 30 min (ligated reads / total reads); higher = more ligase activity", "conditions": "with F1*subA RNA substrate (template-directed ligation), 42 °C", "description": "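Chip-synthesised pool of minF1 ligase ribozyme variants (single and double substitutions, single to quadruple deletions, bulge and P2 designed variants) was transcribed with T7 and reacted as a pool with excess substrate F1*subA for 30 min at 42 C in 50 mM EPPS pH 8.5, 25 mM MgCl2. Ligated and unligated RNAs were separated by PAGE, barcoded by RT and deep sequenced; fraction ligated = ligated reads / total reads, relative activity = FL / FL of wild-type minF1 (0.76); sequencing FL correlated with PAGE (R2 = 0.98). Sequences are the DNA template of the ribozyme.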"}
{"variant": "GAGACCGCAACTGAAAAGTTGTATCGAATGATGGGTTGAATTTCTGCACGTAGAAGCAAAAGGC", "note": "[TCGAGATGTGA T23A A29T]", "fraction ligated": 0.00198}
{"variant": "GAGACCGCAACTGAAAAGTTGTATCGAAGGATGGGTTGAATTTCTGCACGTAGAAGCAAAAGGC", "note": "[TCGAGATGTGA T23A A29G]", "fraction ligated": 0.00586}
{"variant": "GAGACCGCAACTGAAAAGTTGTATCGAATGGATGGGTTGATTTCTGCACGTAGAAGCAAAAGGC", "note": "[TCGAGGATGTG T23A A29T]", "fraction ligated": 0.0128}
{"variant": "GAGACCGCAACTGAAAAGTTGTATCGAATGGTGGGTTGAATTTCTGCACGTAGAAGCAAAAGGC", "note": "[TCGAGGTGTGA T23A A29T]", "fraction ligated": 0.00169}
{"variant": "GAGACCGCAACTGAAAAGTTGTATCGAAATGATGGTTGAATTTCTGCACGTAGAAGCAAAAGGC", "note": "[TCGATGATTGA T23A]", "fraction ligated": 0.00304}
{"variant": "GAGACCGCAACTGAAAAGTTGTTACGAAATGGATGGTTAATTTCTGCACGTAGAAGCAAAAGGC", "note": "[ACGATGGAGTA G34T]", "fraction ligated": 0.0869}
{"variant": "GAGACCGCAACTGAAAAGTTGTATCGAAATATGGGTTGAATTTCTGCACGTAGAAGCAAAAGGC", "note": "[TCGATATGTGA T23A]", "fraction ligated": 0.00444}
{"variant": "GAGACCGCAACTGAAAAGTTGTTTCGAAATGGATGGGTTGTTTCTGCACGTAGAAGCAAAAGGC", "note": "[TCGATGGAGTT G34T T37G A40G]", "fraction ligated": 0.000433}
{"variant": "GAGACCGCAACTGAAAAGTTGTTTCGAAAGGTGGGTTGAATTTCTGCACGTAGAAGCAAAAGGC", "note": "[TCGAGGTGTGA]", "fraction ligated": 0.00212}
{"variant": "GAGACCGCAACTGAAAAGTTGTTTCGAATGGATGGTTGAATTTCTGCACGTAGAAGCAAAAGGC", "note": "[TCGAGGATTGA A29T]", "fraction ligated": 0.00979}
{"variant": "GAGACCGCAACTGAAAAGTTGTTTCGAAATGATGGTTGAATTTCTGCACGTAGAAGCAAAAGGC", "note": "[TCGATGATTGA]", "fraction ligated": 0.00257}
{"variant": "GAGACCGCAACTGAAAAGTTGTATCGATGGATGGGTTGAATTTCTGCACGTAGAAGCAAAAGGC", "note": "[TCGAGATGTGA T23A A28T A29G]", "fraction ligated": 0.00546}
{"variant": "GAGACCGCAACTGAAAAGTTGTATCGAAATGGTGGGTTGATTTCTGCACGTAGAAGCAAAAGGC", "note": "[TCGATGGTGTG T23A]", "fraction ligated": 0.00391}
{"variant": "GAGACCGCAACTGAAAAGTTGTTACGAAAGGTGGGTTGAATTTCTGCACGTAGAAGCAAAAGGC", "note": "[ACGAGGTGTGA]", "fraction ligated": 0.00342}
{"variant": "GAGACCGCAACTGAAAAGTTGTTACGAATGGATGGGTTGATTTCTGCACGTAGAAGCAAAAGGC", "note": "[ACGAGGATGTG A29T]", "fraction ligated": 0.0152}
{"variant": "GAGACCGCAACTGAAAAGTTGTTACGAAATGGTGGTTGAATTTCTGCACGTAGAAGCAAAAGGC", "note": "[ACGATGGTTGA]", "fraction ligated": 0.00307}
{"variant": "GAGACCGCAACTGAAAAGTTGTATCGAAATGGAGGGTTAATTTCTGCACGTAGAAGCAAAAGGC", "note": "[TCGATGGAGTA T23A]", "fraction ligated": 0.00851}
{"variant": "GAGACCGCAACTGAAAAGTTGTTACGAAATGTGGGTTGAATTTCTGCACGTAGAAGCAAAAGGC", "note": "[ACGATGTGTGA]", "fraction ligated": 0.00232}
{"variant": "GAGACCGCAACTGAAAAGTTGTTACGAAATGAGGGTTGAATTTCTGCACGTAGAAGCAAAAGGC", "note": "[ACGATGAGTGA]", "fraction ligated": 0.0021}
{"variant": "GAGACCGCAACTGAAAAGTTGTATCGAAATGAGGGTTGAATTTCTGCACGTAGAAGCAAAAGGC", "note": "[TCGATGAGTGA T23A]", "fraction ligated": 0.00204}
{"variant": "GAGACCGCAACTGAAAAGTTGTTACGAAATGGATGGTTGATTTCTGCACGTAGAAGCAAAAGGC", "note": "[ACGATGGAGTG G34T]", "fraction ligated": 0.156}
{"variant": "GAGACCGCAACTGAAAAGTTGTTACGAAATGGGGGTTGAATTTCTGCACGTAGAAGCAAAAGGC", "note": "[ACGATGGGTGA]", "fraction ligated": 0.00155}
{"variant": "GAGACCGCAACTGAAAAGTTGTATCGAAATGGTGGGTTAATTTCTGCACGTAGAAGCAAAAGGC", "note": "[TCGATGGTGTA T23A]", "fraction ligated": 0.00392}
{"variant": "GAGACCGCAACTGAAAAGTTGTATCGAAATGGAGGGTTGATTTCTGCACGTAGAAGCAAAAGGC", "note": "[TCGATGGAGTG T23A]", "fraction ligated": 0.02}
{"variant": "GAGACCGCAACTGAAAAGTTGTATCGAAATGGGGGTTGAATTTCTGCACGTAGAAGCAAAAGGC", "note": "[TCGATGGGTGA T23A]", "fraction ligated": 0.000539}
{"variant": "GAGACCGCAACTGAAAAGTTGTTTCGAAATGGATGGTTAATTTCTGCACGTAGAAGCAAAAGGC", "note": "[TCGATGGAGTA G34T]", "fraction ligated": 0.143}
{"variant": "GAGACCGCAACTGAAAAGTTGTTTCGAAATGGATGGTTGATTTCTGCACGTAGAAGCAAAAGGC", "note": "[TCGATGGAGTG G34T]", "fraction ligated": 0.253}
{"variant": "GAGACCGCAACTGAAAAGTTGTATCGAAAGGAGGGTTGAATTTCTGCACGTAGAAGCAAAAGGC", "note": "[TCGAGGAGTGA T23A]", "fraction ligated": 0.00431}
{"variant": "GAGACCGCAACTGAAAAGTTGTTACGAATGGATGGTTGAATTTCTGCACGTAGAAGCAAAAGGC", "note": "[ACGAGGATTGA A29T]", "fraction ligated": 0.00766}
{"variant": "GAGACCGCAACTGAAAAGTTGTTTCGAAATGATGGGTTGATTTCTGCACGTAGAAGCAAAAGGC", "note": "[TCGATGATGTG]", "fraction ligated": 0.00893}
{"variant": "GAGACCGCAACTGAAAAGTTGTTTCGAAATGATGGGTTAATTTCTGCACGTAGAAGCAAAAGGC", "note": "[TCGATGATGTA]", "fraction ligated": 0.00391}
{"variant": "GAGACCGCAACTGAAAAGTTGTTACGAAATGATGGGTTAATTTCTGCACGTAGAAGCAAAAGGC", "note": "[ACGATGATGTA]", "fraction ligated": 0.00144}
{"variant": "GAGACCGCAACTGAAAAGTTGTTACGAAATGATGGGTTGATTTCTGCACGTAGAAGCAAAAGGC", "note": "[ACGATGATGTG]", "fraction ligated": 0.00517}
{"variant": "GAGACCGCAACTGAAAAGTTGTATCGAAATGATGGGTTAATTTCTGCACGTAGAAGCAAAAGGC", "note": "[TCGATGATGTA T23A]", "fraction ligated": 0.00263}
{"variant": "GAGACCGCAACTGAAAAGTTGTTACGAAAGGAGGGTTGAATTTCTGCACGTAGAAGCAAAAGGC", "note": "[ACGAGGAGTGA]", "fraction ligated": 0.000641}
{"variant": "GAGACCGCAACTGAAAAGTTGTATCGAAATGGATGGGTTATTTCTGCACGTAGAAGCAAAAGGC", "note": "[TCGATGGAGTT T23A G34T T37G]", "fraction ligated": 0.001}
{"variant": "GAGACCGCAACTGAAAAGTTGTTTCGAAAGGATGGGTTAATTTCTGCACGTAGAAGCAAAAGGC", "note": "[TCGAGGATGTA]", "fraction ligated": 0.00168}
{"variant": "GAGACCGCAACTGAAAAGTTGTTTCGAAAGGATGGGTTGATTTCTGCACGTAGAAGCAAAAGGC", "note": "[TCGAGGATGTG]", "fraction ligated": 0.00804}
{"variant": "GAGACCGCAACTGAAAAGTTGTATCGAAATGGTGGTTGAATTTCTGCACGTAGAAGCAAAAGGC", "note": "[TCGATGGTTGA T23A]", "fraction ligated": 0.00216}
{"variant": "GAGACCGCAACTGAAAAGTTGTTTCGAAATGGAGGTTGAATTTCTGCACGTAGAAGCAAAAGGC", "note": "[TCGATGGATGA]", "fraction ligated": 0.00257}
{"variant": "GAGACCGCAACTGAAAAGTTGTTTCGAATGGATGGGTTAATTTCTGCACGTAGAAGCAAAAGGC", "note": "[TCGAGGATGTA A29T]", "fraction ligated": 0.00472}
{"variant": "GAGACCGCAACTGAAAAGTTGTTTCGAAAGGATGGTTGAATTTCTGCACGTAGAAGCAAAAGGC", "note": "[TCGAGGATTGA]", "fraction ligated": 0.00327}
